The values below come from PMC10770723 (2023).

In this experiment the target is T1, recombinant Der p 2 (Dermatophagoides pteronyssinus …, UniProt P49278).
T1 chain: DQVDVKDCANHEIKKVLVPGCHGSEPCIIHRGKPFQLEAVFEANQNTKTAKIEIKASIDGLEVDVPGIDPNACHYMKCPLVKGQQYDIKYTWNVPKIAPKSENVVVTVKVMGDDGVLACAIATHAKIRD
Nature of the experiment: ELISA (coated rDer p 2, Siglec-Fc binding); Unmodified rDer p 2 does not bind; binding to Siglec-9-Fc requires chemical conjugation of α2-3 sialic acids to rDer p 2 (sia-rDer p 2).

B1: Siglec-9–hFc chimera (protein)
chain: QTSKLLTMQSSVTVQEGLCVHVPCSFSYPSHGWIYPGPVVHGYWFREGANTDQDAPVATNNPARAVWEETRDRFHLLGDPHTKNCTLSIRDARRSDAGRYFFRMEKGSIKWNYKHHRLSVNVTALTHRPNILIPGTLESGCPQNLTCSVPWACEQGTPPMISWIGTSVSPLDPSTTRSSVLTLIPQPQDHGTSLTCQVTFPGASVTTNKTVHLNVSYPPQNLTMTVFQGDGTVSTVLGNGSSLSLPEGQSLRLVCAVDAVDSNPPARLSLSWRGLTLCPSQPSNPGVLELPWVHLRDAAEFTCRAQNPLGSQQVYLNVSLQSKATSGVTQG
B1: the binding result is given as “no binding”.
